IntAct's records for PubMed 10444103

Key:
mad14_orysj MADS14 [1] = molecular target: mad14_orysj MADS14 (UniProt Q10CQ1)
mad14_orysj MADS14 [2] = molecular target: mad14_orysj MADS14 (UniProt Q10CQ1); remark: listed apart in the source

mad14_orysj MADS14, sequence (Q10CQ1 whole entry): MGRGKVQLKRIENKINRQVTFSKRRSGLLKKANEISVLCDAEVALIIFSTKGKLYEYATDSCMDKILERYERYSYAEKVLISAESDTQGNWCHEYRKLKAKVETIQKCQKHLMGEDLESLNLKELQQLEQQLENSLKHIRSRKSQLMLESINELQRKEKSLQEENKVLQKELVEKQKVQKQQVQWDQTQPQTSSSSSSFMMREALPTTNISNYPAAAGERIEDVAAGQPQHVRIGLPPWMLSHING
MADS-box transcription factor 6 (Oryza sativa subsp. japonica (Rice)), Q6EU39 L110R;L118R;L159R;L166R, sequence (Q6EU39 whole entry L110R/L118R/L159R/L166R): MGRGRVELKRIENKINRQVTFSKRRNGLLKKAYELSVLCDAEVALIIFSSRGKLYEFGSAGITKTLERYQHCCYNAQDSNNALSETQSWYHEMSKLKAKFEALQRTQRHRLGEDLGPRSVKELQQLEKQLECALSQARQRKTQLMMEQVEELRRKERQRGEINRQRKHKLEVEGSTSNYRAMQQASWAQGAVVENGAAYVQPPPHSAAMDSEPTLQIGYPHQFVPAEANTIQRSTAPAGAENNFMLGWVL
MADS-box transcription factor 6 (Oryza sativa subsp. japonica (Rice)), Q6EU39 L126R;L134R, sequence (Q6EU39 whole entry L126R/L134R): as the sequence (Q6EU39 whole entry L110R/L118R/L159R/L166R) above, with R110L, R118L, L126R, L134R, R159L, R166L counted along it
MADS-box transcription factor 6 (Oryza sativa subsp. japonica (Rice)), Q6EU39 L159R;L166R, sequence (Q6EU39 whole entry L159R/L166R): as the sequence (Q6EU39 whole entry L110R/L118R/L159R/L166R) above, with R110L, R118L counted along it
MADS-box transcription factor 6 (Oryza sativa subsp. japonica (Rice)), Q6EU39 L110S;L118R, sequence (Q6EU39 whole entry L110S/L118R): as the sequence (Q6EU39 whole entry L110R/L118R/L159R/L166R) above, with R110S, R159L, R166L counted along it
MADS-box transcription factor 6 (Oryza sativa subsp. japonica (Rice)), Q6EU39 L110R;L118R, sequence (Q6EU39 whole entry L110R/L118R): as the sequence (Q6EU39 whole entry L110R/L118R/L159R/L166R) above, with R159L, R166L counted along it

effect of a mutation on the interaction (mad14_orysj MADS14 [1])	effect of a mutation on the interaction (mad14_orysj MADS14 [2])	Substance
–	decreasing interaction strength	MADS-box transcription factor 6 (Oryza sativa subsp. japonica (Rice)), Q6EU39 L110S;L118R
decreasing interaction strength	–	MADS-box transcription factor 6 (Oryza sativa subsp. japonica (Rice)), Q6EU39 L110R;L118R

Further lines, the substance ahead of its results:

Substance	effect of a mutation on the interaction (mad14_orysj MADS14 [1])	effect of a mutation on the interaction (mad14_orysj MADS14 [2])
MADS-box transcription factor 6 (Oryza sativa subsp. japonica (Rice)), Q6EU39 L159R;L166R	disrupting interaction strength	–
MADS-box transcription factor 6 (Oryza sativa subsp. japonica (Rice)), Q6EU39 L126R;L134R	disrupting interaction strength	disrupting interaction strength
MADS-box transcription factor 6 (Oryza sativa subsp. japonica (Rice)), Q6EU39 L110R;L118R;L159R;L166R	disrupting interaction strength	disrupting interaction strength
